The numbers were not newly measured in PMC11266353, “Synthesis of a highly thermostable insulin by phenylalanine conjugation at B29 Lysine” (Communications Chemistry, 2024), which cites them from elsewhere.

Details of this data set: method as in Protein J., 2023, 42, 383. The note with it: ref Protein J., 2023, 42, 383.

Turning to “Modified insulin: insulin analog reported in Protein J., 2023, 42, 383: tri-acetylated at Gly A1, Phe B1 and Lys B29”, the Melting temperature was 72.5 °C.
